Experimental findings from US20250019446A1 (SHANGHAI SINOBAY BIOTECHNOLOGY, published 2025) are described below.

Test [1] deals with T1, human recombinant AXL protein, extracellular domain (hAXL-ECD) (human, UniProt P30530 26-451).
T1 construct: extracellular domain; Bought protein; also called antigen hAXL-ECD; hAXL-ECD protein
T1 sequence (looked up): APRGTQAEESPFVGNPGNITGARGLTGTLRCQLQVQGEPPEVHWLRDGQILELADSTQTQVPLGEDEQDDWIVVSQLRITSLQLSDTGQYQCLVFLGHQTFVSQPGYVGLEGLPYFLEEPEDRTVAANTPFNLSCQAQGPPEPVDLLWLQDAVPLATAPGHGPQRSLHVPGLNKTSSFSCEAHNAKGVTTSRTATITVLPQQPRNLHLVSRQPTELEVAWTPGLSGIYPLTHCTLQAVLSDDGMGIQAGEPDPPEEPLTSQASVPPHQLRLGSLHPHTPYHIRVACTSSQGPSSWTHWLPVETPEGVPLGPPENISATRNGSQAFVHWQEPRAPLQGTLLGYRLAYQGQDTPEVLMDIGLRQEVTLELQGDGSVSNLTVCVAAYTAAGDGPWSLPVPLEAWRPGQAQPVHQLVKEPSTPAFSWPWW
As to the kind of experiment: ELISA, Fab supernatant on coated hAXL-ECD, OD450; unit inferred, unit taken from the concentration axis. The protocol:
Clones from the third round of selection were first picked up in a 96-well deep-well plate containing 300 μL of 2-YT medium and incubated overnight at 37° C. The supernatant, which contained the expressed Fab, was taken, diluted in a gradient, and added to an ELISA plate coated with 2 μg/mL of hAXL-ECD. HRP-labeled goat anti-human Fab was used as the secondary antibody (goat anti-human-HRP, ThermnoFisher, 31482, 1:6000 dilution) for detection. A higher signal value indicated a stronger affinity.
(In general: In an ELISA, binding on a coated surface is turned into a signal by an enzyme label.)

The target in test [2] is T2, AXL on CHO-AXL cells (human, UniProt P30530 26-894).
T2 construct: whole, on cells; The construct in the CHO-AXL cells is not described
T2 sequence (looked up): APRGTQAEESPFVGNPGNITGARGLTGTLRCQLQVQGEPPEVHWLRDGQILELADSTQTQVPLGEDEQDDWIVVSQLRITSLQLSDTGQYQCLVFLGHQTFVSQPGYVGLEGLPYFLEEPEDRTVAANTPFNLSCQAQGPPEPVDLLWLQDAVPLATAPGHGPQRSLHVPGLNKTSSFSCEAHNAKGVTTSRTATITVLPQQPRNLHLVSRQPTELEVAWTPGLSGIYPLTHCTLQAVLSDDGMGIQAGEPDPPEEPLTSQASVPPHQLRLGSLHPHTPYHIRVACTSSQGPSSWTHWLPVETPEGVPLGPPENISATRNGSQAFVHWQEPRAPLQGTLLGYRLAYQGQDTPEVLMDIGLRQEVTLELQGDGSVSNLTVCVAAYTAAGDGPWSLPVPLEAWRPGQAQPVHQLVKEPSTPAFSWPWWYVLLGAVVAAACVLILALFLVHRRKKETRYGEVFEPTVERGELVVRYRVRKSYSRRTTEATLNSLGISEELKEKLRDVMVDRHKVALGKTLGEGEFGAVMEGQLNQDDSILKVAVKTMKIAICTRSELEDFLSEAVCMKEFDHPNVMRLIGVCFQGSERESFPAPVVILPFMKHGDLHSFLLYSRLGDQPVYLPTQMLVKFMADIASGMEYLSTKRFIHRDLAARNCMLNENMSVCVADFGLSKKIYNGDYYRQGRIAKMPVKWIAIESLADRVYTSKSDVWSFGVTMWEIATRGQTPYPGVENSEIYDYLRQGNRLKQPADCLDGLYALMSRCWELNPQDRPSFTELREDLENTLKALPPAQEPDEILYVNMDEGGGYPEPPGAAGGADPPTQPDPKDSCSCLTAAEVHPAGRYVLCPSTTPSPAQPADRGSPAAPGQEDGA
As to the kind of experiment: flow cytometry on CHO-AXL cells, pH 6.0 against pH 7.4. On the procedure: (§1) The affinity of the candidate antibody for specific binding to hAXL-ECD was detected by flow cytometry. A total of 4 clones of Hu001-5, Hu001-7, Hu001-11, and Hu001-14 were tested under acidic (pH=6.0) and neutral (pH=7.4) conditions, respectively.
(§2) CHO-AXL cells (constructed by Shanghai Sinobay Biotechnology Co. Ltd.) were cultured in a cell culture flask in DMEM/F-12 medium (10% FBS, 1% penicillin/streptomycin). After 48 hours of culture at 37° C. in an incubator containing 5% CO₂, the supernatant was discarded. The cells were collected by digestion with 0.25% trypsin and centrifuged at 800 g for 3 minutes. The supernatant was discarded and the cells were resuspended (10⁶/mL) in 2% FBS Wash Buffer. The pH of the buffer was adjusted and the cells were divided into pH6.0 and pH7.4 groups, and primary antibodies (Hu001-5 antibody, Hu001-7 antibody, Hu001-11 antibody, Hu001-14 antibody, and positive control antibody CCT301-38) were added to each group and incubated for 15 minutes at room temperature. The supernatant was discarded. Fluorescent-labeled secondary antibody IgG-Fc-PE (BioLegend, cat. No. 409304) was added and incubation was continued at room temperature for 15 min in the dark. Then, the detection was performed on the machine. A higher signal value can indicate a stronger affinity. […]

The target in test [3] is T2, AXL on CHO-AXL cells. Nature of the test: flow cytometry on CHO-AXL cells, pH 6.0 and pH 7.4, IgG-Fc-PE secondary antibody. On the procedure:
as §1, §2

Changes are numbered by the printed parent chain.

B1: Hu001-7 Fab (clone 7, expressed in clone supernatant) (Fab, V domains shown)
VH: QVQLVQSGAEVKKPGSSVKVSCKASGGTFSSYAISWVRQAPGQGLEWMGGIIPIFGTANYAQKFQGRVTITADESTSTAYMELSSLRSEDTAVYYCAKDIVSRVRGELVGGYYYFGLDVWGQGTTVTVSA
VL: NIQLTQSPSSLSASVGDRVTITCRASQTISSYLNWYQQKPGKAPKLLIYAASRLQSGVPSRFSGSGSGTDFTLTISSLQPEDFATYYCQQSYSTPRTFGQGTKVEIK
notes: Fab from the phage library clone, tested as bacterial culture supernatant
Take B1: the EC50 (as a rule, the midpoint of the concentration-response curve) in test [1] worked out at 0.214 µg/mL.

B2: Hu001-5 antibody (full-length human IgG1, kappa) (antibody, V domains shown)
VH: QVQLLESGGGVVQPGRSLRLSCAASGFTFSSYGMHWVRQAPGKGLEWVAVISYDGSNKYYADSVKGRFTISRDNSKNTLYLQMNSLRAEDTAVYYCAKDQVLAPVGGGLFDYWGQGTLVTVSA
VL: B1 VL with N1D, T28S, S31T, K45E, L46S, Y49F, R53S, Q55A, Q100P
notes: built as human IgG1 with kappa light chain in vectors AbVec-hIgG1 WT and AbVec-hIgKappa, expressed in Expi293 cells; also called anti-AXL antibody Hu001-5
B2: in the test with AXL on CHO-AXL cells [2], the “fold of mean fluorescence intensity under the acidic condition against the neutral condition” value was around 1.5 fold. The “fold of mean fluorescence intensity against the positive control CCT301-38” value with AXL on CHO-AXL cells [3] is around 4 fold.

B3: Hu001-5 Fab (clone 5, expressed in clone supernatant) (Fab, V domains shown)
VH: B2 VH
VL: B1 VL with N1D, T28S, S31T, K45E, L46S, Y49F, R53S, Q55A, Q100P
notes: as for B1
With B3, the EC50 in test [1] came to 0.292 µg/mL.

B4: Hu001-11 Fab (clone 11, expressed in clone supernatant) (Fab, V domains shown)
VH: QVQLLESGGGVVQPGRSLRLSCAASGFTFSSYGMHWVRQAPGKGLEWVAVISYDGSNKYYADSVKGRFTISRDNSKNTLYLQMNSLRAEDTAVYYCAKYGSSGPYWYFDLWGQGTLVTVSA
VL: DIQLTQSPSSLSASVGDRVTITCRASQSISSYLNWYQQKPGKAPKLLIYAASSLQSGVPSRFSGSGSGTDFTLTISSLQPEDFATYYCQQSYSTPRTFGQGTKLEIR
notes: as for B1
For the molecule B4, the EC50 in test [1] stood at 0.14 µg/mL.

B5: Hu001-11 antibody (full-length human IgG1, kappa) (antibody, V domains shown)
VH: B4 VH
VL: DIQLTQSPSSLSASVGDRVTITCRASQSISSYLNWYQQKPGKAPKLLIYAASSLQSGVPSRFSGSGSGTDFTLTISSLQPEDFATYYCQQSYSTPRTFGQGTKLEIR
notes: built as human IgG1 with kappa light chain in vectors AbVec-hIgG1 WT and AbVec-hIgKappa, expressed in Expi293 cells; also called anti-AXL antibody Hu001-11
With B5, the “fold of mean fluorescence intensity under the acidic condition against the neutral condition” value with AXL on CHO-AXL cells [2] was around 1.5 fold. For the same molecule, in the test with AXL on CHO-AXL cells [3], the “fold of mean fluorescence intensity against the positive control CCT301-38” value was around 4 fold.

B6: Hu001-14 Fab (clone 14, expressed in clone supernatant) (Fab, V domains shown)
VH: EVQLVQSGAEVKKPGASVKVSCKASGYTFTSYYMHWVRQAPGQGLEWMGIINPSGGSTSYAQKFQGRVTMTRDTSTSTVYMELSSLRSEDSAVYYCARDWYFDVWGAGTTVTVSA
VL: NIQMTQSPSSVSASVGDRVTITCRASQGISSWLAWYQQKPGKAPKLLIYAASSLQSGVPSRFSGSGSGTDFTLTISSLQPEDFATYYCQQANSFPFTFGGGTKVEIK
notes: as for B1
On to B6, for which the EC50 in test [1] came out at 0.274 µg/mL.
